According to patent US20250109204A1 (LAVA THERAPEUTICS N V, published 2025):
Values belong to the molecule of their own block, whether it stands above or below them.

Key:
[1] = target: Epidermal growth factor receptor (EGFR) on tumor cell lines A-431, HCT-116 and HT-29 (human) (UniProt P00533); experiment: cell-based or functional assay
[2] = target: Human Vγ9Vδ2 T cell receptor on primary Vγ9Vδ2 T cells (human) (UniProt Q99603); experiment: cell-based or functional assay
[3] = target: T1, Epidermal growth factor receptor (EGFR) on tumor cell lines A-431, HCT-116 and HT-29 (human, UniProt P00533 25-1210); experiment: cell-based ELISA on A-431 cells, anti-IgG1-HRP, signal at 450 nm
T1 construct: whole, on cells; also called EGFR positive tumor cells
Procedure: (§1) To this end, tumor cells were first seeded at different concentrations on day-1 to reach a concentration of approximately 50000 cells/well on day 0. […] Bound antibodies were then labelled in a secondary incubation step with anti-IgG1-HRP for one hour at 37° C. The secondary antibody binding was then resolved by the addition of 3,3′,5,5′-Tetramethylbenzidine and the colorimetric change induced by the HRP, followed by the addition of H2SO4 to stop the reaction. The optical density (OD) was then measured in a UV spectrometer at a wavelength of 450 nm.

[4] = target: Human Vγ9Vδ2 T cell receptor on primary Vγ9Vδ2 T cells (human) (UniProt Q99603); experiment: flow cytometry on expanded primary human Vγ9Vδ2 T cells (two donors), labelled anti-IgG1 secondary antibody
[5] = target: T1, Epidermal growth factor receptor (EGFR) …; experiment: cell-based ELISA on HT29 cells, anti-IgG1-HRP, signal at 450 nm; EC50 table gives no unit, x axis is in nM
Procedure: as §1

[6] = target: T1, Epidermal growth factor receptor (EGFR) …; experiment: cell-based ELISA on HCT-116 cells, anti-IgG1-HRP, signal at 450 nm; EC50 table gives no unit, x axis is in nM
Procedure: as §1

[7] = target: T1, Epidermal growth factor receptor (EGFR) …; experiment: cell-based ELISA on EGFR-expressing A-431, HCT-116 and HT-29 cells, anti-IgG1-HRP, OD 450 nm; one EC50 given for all three cell lines A-431, HCT-116 and HT-29; 37° C
Procedure: as §1

[8] = target: Human Vγ9Vδ2 T cell receptor on primary Vγ9Vδ2 T cells (human) (UniProt Q99603); experiment: flow cytometry on expanded primary Vγ9Vδ2 T cells of donor D336 (panel 'Binding to D336 P3'), anti-IgG1 secondary, MFI (geometric mean); EC50 table beside the curve gives no unit, x axis is in nM
[9] = target: Human Vγ9Vδ2 T cell receptor on primary Vγ9Vδ2 T cells (human) (UniProt Q99603); experiment: flow cytometry on expanded primary Vγ9Vδ2 T cells of donor D339 (panel 'Binding to D339 P2'), anti-IgG1 secondary, MFI (geometric mean); EC50 table beside the curve gives no unit, x axis is in nM
[10] = target: T1, Epidermal growth factor receptor (EGFR) …; experiment: cell-based ELISA on A-431 cells, anti-IgG1-HRP, signal at 450 nm; EC50 table gives no unit, x axis is in nM; the table is identical to that of Fig. 10C and does not fit the drawn curve
Procedure: as §1

[11] = target: Recombinant human Vγ9Vδ2-Fc fusion protein (human) (UniProt Q99603); experiment: BLI (Octet RED96), Vγ9Vδ2-Fc captured on anti-human Fc biosensors, VHH as analyte, 1:1 global fit, mean of at least three measurements +/- SD
[12] = target: T1, Epidermal growth factor receptor (EGFR) …; experiment: cell-based or functional assay
[13] = target: Human Vγ9Vδ2 T cell receptor on primary Vγ9Vδ2 T cells (human), Q99603; experiment: cell-based or functional assay

- EC50 degranulation (pM) [2]: 10 pM
Molecule: bispecific VHH 7D12-5C8 (non-humanized) (bispecific antibody)
- EC50 cytotoxicity (pM) [1]: 9 pM

- EC50 for Vγ9Vδ2 T cell degranulation (CD107a) [2]: 0.04 to 0.09 nM
- EC50 (read off the curve) [3]: ~1 nM
- EC50 [4]: 3 nM
- EC50 [5]: 6.45 nM
- EC50 [6]: 7.29 nM
- EC50 [7]: ~7 nM
- EC50 [8]: 3.11 nM
- EC50 [9]: 3.99 nM
- EC50 [10]: 7.29 nM
B1: 7D12var8-5C8var1 (Y105F)-Fc (bispecific antibody, V domains shown)
V domain 1: EVQLVESGGGSVQPGGSLRLSCAASGRTSRSYGMGWFRQAPGKEREFVSGISWRGDSTGYADSVKGRFTISRDNAKNTVDLQMNSLRAEDTAVYYCAAAAGSAWYGTLYEYDYWGQGTLVTVSS
V domain 2: EVQLLESGGGSVQPGGSLRLSCAASGRPFSNYAMSWFRQAPGKEREFVSAISWSGGSTSYADSVKGRFTISRDNSKNTLYLQMNSLRAEDTAVYYCAAQFSGADFGFGRLGIRGYEYDYWGQGTQVTVSS
notes: Heterodimer of two VHH-Fc chains: 7D12var8-Fc (hole) and 5C8var1(Y105F)-Fc (knob); Human IgG1 Fc with L234F and L235E; In both entries the last residue X3 is K or absent; copies: 1 + 1

- Kd [11]: 1.59 nM
B2: VHH 5C8var1-Y105S (VHH)
VHH: EVQLLESGGGSVQPGGSLRLSCAASGRPFSNYAMSWFRQAPGKEREFVSAISWSGGSTSYADSVKGRFTISRDNSKNTLYLQMNSLRAEDTAVYYCAAQFSGADSGFGRLGIRGYEYDYWGQGTQVTVSS

- Kd [11]: 0.78 nM
B3: VHH 5C8var1-Y105F (VHH)
VHH: EVQLLESGGGSVQPGGSLRLSCAASGRPFSNYAMSWFRQAPGKEREFVSAISWSGGSTSYADSVKGRFTISRDNSKNTLYLQMNSLRAEDTAVYYCAAQFSGADFGFGRLGIRGYEYDYWGQGTQVTVSS

- Kd [11]: 0.81 nM
B4: VHH 5C8var1 (VHH)
VHH: EVQLLESGGGSVQPGGSLRLSCAASGRPFSNYAMSWFRQAPGKEREFVSAISWSGGSTSYADSVKGRFTISRDNSKNTLYLQMNSLRAEDTAVYYCAAQFSGADYGFGRLGIRGYEYDYWGQGTQVTVSS
modifications: Y105 partly sulfated (shown for 5C8 and for 1D12var5-5C8var1; 5C8var1 gave two HP-SEC peaks)

- EC50 degranulation (pM) [13]: 11 pM
B5: bispecific VHH 7D12var8-5C8var1-Y105F (bispecific antibody)
chain: EVQLVESGGGSVQPGGSLRLSCAASGRTSRSYGMGWFRQAPGKEREFVSGISWRGDSTGYADSVKGRFTISRDNAKNTVDLQMNSLRAEDTAVYYCAAAAGSAWYGTLYEYDYWGQGTLVTVSSGGGGSEVQLLESGGGSVQPGGSLRLSCAASGRPFSNYAMSWFRQAPGKEREFVSAISWSGGSTSYADSVKGRFTISRDNSKNTLYLQMNSLRAEDTAVYYCAAQFSGADFGFGRLGIRGYEYDYWGQGTQVTVSS
- EC50 cytotoxicity (pM) [12]: 2.5 pM
